This passage reports Ki and IC50 results from patent US10800813 (Bicycle, dated 2020).

As usually defined, the Ki is the equilibrium dissociation constant of an inhibitor or competing ligand from its target. What is called IC50 is the point on the concentration scale where inhibition reaches its midpoint.

For assay [1], the target named is T1, Rat plasma Kallikrein (rat, UniProt P14272 391-638, limits assumed).
T1 construct: domain: catalytic domain; also called rPK; rat PK
Kind of assay: enzyme inhibition assay.

The next assay deals with T2, Monkey plasma Kallikrein (monkey (Macaca mulatta), UniProt A0A1D5Q7U7 391-638).
T2 construct: domain: catalytic domain; also called mPK
T2 sequence (A0A1D5Q7U7 entry or part of it): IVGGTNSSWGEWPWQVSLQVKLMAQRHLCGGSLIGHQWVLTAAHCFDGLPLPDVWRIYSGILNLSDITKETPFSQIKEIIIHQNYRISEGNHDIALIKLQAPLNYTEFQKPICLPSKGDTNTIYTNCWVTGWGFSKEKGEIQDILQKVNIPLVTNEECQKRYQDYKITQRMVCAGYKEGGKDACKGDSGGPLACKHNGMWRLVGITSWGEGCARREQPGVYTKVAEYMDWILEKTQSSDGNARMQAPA
The assay is described as follows: enzyme inhibition assay.

For the next assay, the target named is T3, Human factor XIa (human, UniProt P03951 19-625).
T3 construct: also called hfXIa
Kind of assay: enzyme inhibition assay.

The target of assay [2] is T4, human plasma Kallikrein (human, UniProt P03952 20-638, limits assumed).
T4 construct: also called hPK; human PK
T4 sequence (P03952 20-638 limits assumed): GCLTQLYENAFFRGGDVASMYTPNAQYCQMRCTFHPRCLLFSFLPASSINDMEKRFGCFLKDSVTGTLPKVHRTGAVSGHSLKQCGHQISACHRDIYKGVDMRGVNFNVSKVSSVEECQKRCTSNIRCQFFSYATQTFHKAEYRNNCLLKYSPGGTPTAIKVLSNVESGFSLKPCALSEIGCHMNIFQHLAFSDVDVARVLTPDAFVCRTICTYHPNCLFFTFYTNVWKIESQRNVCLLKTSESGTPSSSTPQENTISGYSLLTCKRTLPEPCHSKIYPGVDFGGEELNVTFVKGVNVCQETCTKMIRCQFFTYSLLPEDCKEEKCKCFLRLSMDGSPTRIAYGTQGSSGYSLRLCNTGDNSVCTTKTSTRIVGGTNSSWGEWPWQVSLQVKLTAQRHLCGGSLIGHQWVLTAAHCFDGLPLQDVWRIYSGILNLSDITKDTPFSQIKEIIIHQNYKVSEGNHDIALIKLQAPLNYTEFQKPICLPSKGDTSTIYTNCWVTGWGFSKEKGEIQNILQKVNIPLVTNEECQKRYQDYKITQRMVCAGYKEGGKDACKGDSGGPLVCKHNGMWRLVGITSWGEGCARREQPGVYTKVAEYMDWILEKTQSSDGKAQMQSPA
The assay is described as follows: enzyme inhibition assay.

Assay [3] concerns the target T4, human plasma Kallikrein. Kind of assay: enzyme inhibition assay. This is another data set of the same source.
Assay [4] deals with T4, human plasma Kallikrein. Kind of assay: enzyme inhibition assay. This is another data set of the same source.
For a further assay, the target named is Human plasmin (human, UniProt P00747 97-810). Kind of assay: enzyme inhibition assay.
Human plasmin, sequence (P00747 97-810 limits assumed): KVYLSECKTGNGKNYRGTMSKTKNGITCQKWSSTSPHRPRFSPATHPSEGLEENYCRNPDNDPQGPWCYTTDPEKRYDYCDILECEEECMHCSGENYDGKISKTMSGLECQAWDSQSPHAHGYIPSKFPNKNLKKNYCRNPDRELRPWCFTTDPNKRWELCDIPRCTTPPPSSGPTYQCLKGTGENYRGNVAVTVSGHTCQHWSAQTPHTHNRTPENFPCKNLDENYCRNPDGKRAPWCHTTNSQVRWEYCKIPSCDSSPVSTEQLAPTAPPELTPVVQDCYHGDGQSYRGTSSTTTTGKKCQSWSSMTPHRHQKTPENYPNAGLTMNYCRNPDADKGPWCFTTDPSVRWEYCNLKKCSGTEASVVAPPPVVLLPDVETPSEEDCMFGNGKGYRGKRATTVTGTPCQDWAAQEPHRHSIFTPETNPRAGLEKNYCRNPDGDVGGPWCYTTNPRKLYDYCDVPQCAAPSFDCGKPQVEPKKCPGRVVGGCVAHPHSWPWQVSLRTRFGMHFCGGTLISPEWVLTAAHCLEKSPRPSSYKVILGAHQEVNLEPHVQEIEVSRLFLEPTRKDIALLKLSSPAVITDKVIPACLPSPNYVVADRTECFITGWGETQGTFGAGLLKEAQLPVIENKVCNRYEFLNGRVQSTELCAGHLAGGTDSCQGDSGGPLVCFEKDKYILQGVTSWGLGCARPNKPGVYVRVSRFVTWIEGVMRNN
The target in assay [5] is T4, human plasma Kallikrein. The assay is described as follows: enzyme inhibition assay. The source holds these as a separate data set.
In assay [6] the target is T1, Rat plasma Kallikrein. The assay is described as follows: enzyme inhibition assay; values relative, not absolute.
Assay [7] concerns the target T4, human plasma Kallikrein. Kind of assay: enzyme inhibition assay. The source holds these as a separate data set.
Assay [8] has as its target T4, human plasma Kallikrein. Kind of assay: enzyme inhibition assay. The source holds these as a separate data set.

Like-named read-outs stand apart in the source and are kept apart here. Numbered stars: 1 amine (or outer) side, 2 acyl side, 3 side chain; on linkers, the order of the positions; unused ones are H or OH. Bridge positions count the residues as written; N and C are the ends. Square brackets hold non-standard residues; d marks the D form. Ends that are not written are not given here. TBMB = c1c(C[*:1])cc(C[*:3])cc1C[*:2]; NMeR = CN[C@@H](CCCNC(=N)N)C(=O)O; hArg = N=C(N)NCCCC[C@H](N)C(=O)O

T1 sequence (P14272 391-638 limits assumed): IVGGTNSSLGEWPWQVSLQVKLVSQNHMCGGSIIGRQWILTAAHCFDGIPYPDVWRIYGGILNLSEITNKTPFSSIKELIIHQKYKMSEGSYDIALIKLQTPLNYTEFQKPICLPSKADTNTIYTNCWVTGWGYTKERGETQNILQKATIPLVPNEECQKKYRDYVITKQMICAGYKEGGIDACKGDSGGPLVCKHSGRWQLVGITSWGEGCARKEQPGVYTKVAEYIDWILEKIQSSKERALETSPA

Consider ACFKACRVNCA (linker 2-6-10 via TBMB, also called PK117) [3B3], for which the Ki with Rat plasma Kallikrein [1] amounted to 24 nM; with Monkey plasma Kallikrein, 11 nM; with Human factor XIa, 57 nM.
Regarding ACFKHCRVACA (linker 2-6-10 via TBMB, also called PK123) [3B8], the Ki with Rat plasma Kallikrein [1] came to 12 nM; in the assay with Monkey plasma Kallikrein it was 9 nM; in the assay with Human factor XIa, 52 nM; in the assay with human plasma Kallikrein [2], 7 nM; in the assay with human plasma Kallikrein [3], 0.95 nM.
Take ACTYPYKCLHQNLCA (linker 2-8-14 via TBMB, also called PK112) [2A10]: the Ki in the assay with human plasma Kallikrein [4] came to 4.98 nM; with Rat plasma Kallikrein [1], 66 nM; with Monkey plasma Kallikrein, 23 nM; with Human plasmin, 30 µM; with human plasma Kallikrein [2], 18 nM.

B1: Ac-06-34-18(TMB)-NH2 Phe2Tyr4 (peptide)
peptide: Ac-CSFPYRCLHQDLC-NH2
modifications: linker 1-7-13 via TBMB
SMILES: CC(=O)N[C@H]1CSCc2cc3cc(c2)CSC[C@H](NC(=O)[C@H](CCCNC(=N)N)NC(=O)[C@H](Cc2ccc(O)cc2)NC(=O)[C@@H]2CCCN2C(=O)[C@H](Cc2ccccc2)NC(=O)[C@H](CO)NC1=O)C(=O)N[C@@H](CC(C)C)C(=O)N[C@@H](Cc1c[nH]cn1)C(=O)N[C@@H](CCC(N)=O)C(=O)N[C@@H](CC(=O)O)C(=O)N[C@@H](CC(C)C)C(=O)N[C@H](C(N)=O)CSC3
notes: also called Ac-(06-34-18) FPYR; Ac-(06-34-18) Phe2 Tyr4
For B1, the Ki with human plasma Kallikrein [5], with human plasma Kallikrein [7] and in the assay with human plasma Kallikrein [8] was 0.46 nM in each case. For the same molecule, the IC50 with Rat plasma Kallikrein [6] is 13.8 nM.

B2: Ac-(06-34-18) Phe2 Tyr4 NMeArg5 (peptide)
peptide: Ac-CSFPY[NMeR]CLHQDLC-NH2
modifications: linker 1-7-13 via TBMB
SMILES: CC(=O)N[C@H]1CSCc2cc3cc(c2)CSC[C@H](NC(=O)[C@H](CCCNC(=N)N)N(C)C(=O)[C@H](Cc2ccc(O)cc2)NC(=O)[C@@H]2CCCN2C(=O)[C@H](Cc2ccccc2)NC(=O)[C@H](CO)NC1=O)C(=O)N[C@@H](CC(C)C)C(=O)N[C@@H](Cc1c[nH]cn1)C(=O)N[C@@H](CCC(N)=O)C(=O)N[C@@H](CC(=O)O)C(=O)N[C@@H](CC(C)C)C(=O)N[C@H](C(N)=O)CSC3
B2: in the assay with Rat plasma Kallikrein [6], the IC50 is 60.2 nM. The molecule further returned a Ki with human plasma Kallikrein [8] of 3.56 nM.

B3: Ac-(06-34-18) Phe2 Tyr4 HomoArg5 (peptide)
peptide: Ac-CSFPY[hArg]CLHQDLC-NH2
modifications: linker 1-7-13 via TBMB
SMILES: CC(=O)N[C@H]1CSCc2cc3cc(c2)CSC[C@H](NC(=O)[C@H](CCCCNC(=N)N)NC(=O)[C@H](Cc2ccc(O)cc2)NC(=O)[C@@H]2CCCN2C(=O)[C@H](Cc2ccccc2)NC(=O)[C@H](CO)NC1=O)C(=O)N[C@@H](CC(C)C)C(=O)N[C@@H](Cc1c[nH]cn1)C(=O)N[C@@H](CCC(N)=O)C(=O)N[C@@H](CC(=O)O)C(=O)N[C@@H](CC(C)C)C(=O)N[C@H](C(N)=O)CSC3
In the case of B3, in the assay with Rat plasma Kallikrein [6], the IC50 was found to be 19.7 nM. The same molecule gave a Ki with human plasma Kallikrein [8] of 0.77 nM.
Take H-ACSDRFRNCPADEALCG-NH2 (linker 2-9-16 via TBMB, 6x6 bicyclic peptide) [PK15]: the Ki is 941 nM with Rat plasma Kallikrein [1], 4 nM in the assay with Monkey plasma Kallikrein, 75000 nM with Human factor XIa and 3 nM with human plasma Kallikrein [2].
